The target of the assay is BoNT serotype A (Clostridium botulinum, UniProt P0DPI0 2-1296). The assay is described as follows: affinity; method not stated (yeast display affinity maturation).
BoNT serotype A, sequence (P0DPI0 2-1296 limits assumed): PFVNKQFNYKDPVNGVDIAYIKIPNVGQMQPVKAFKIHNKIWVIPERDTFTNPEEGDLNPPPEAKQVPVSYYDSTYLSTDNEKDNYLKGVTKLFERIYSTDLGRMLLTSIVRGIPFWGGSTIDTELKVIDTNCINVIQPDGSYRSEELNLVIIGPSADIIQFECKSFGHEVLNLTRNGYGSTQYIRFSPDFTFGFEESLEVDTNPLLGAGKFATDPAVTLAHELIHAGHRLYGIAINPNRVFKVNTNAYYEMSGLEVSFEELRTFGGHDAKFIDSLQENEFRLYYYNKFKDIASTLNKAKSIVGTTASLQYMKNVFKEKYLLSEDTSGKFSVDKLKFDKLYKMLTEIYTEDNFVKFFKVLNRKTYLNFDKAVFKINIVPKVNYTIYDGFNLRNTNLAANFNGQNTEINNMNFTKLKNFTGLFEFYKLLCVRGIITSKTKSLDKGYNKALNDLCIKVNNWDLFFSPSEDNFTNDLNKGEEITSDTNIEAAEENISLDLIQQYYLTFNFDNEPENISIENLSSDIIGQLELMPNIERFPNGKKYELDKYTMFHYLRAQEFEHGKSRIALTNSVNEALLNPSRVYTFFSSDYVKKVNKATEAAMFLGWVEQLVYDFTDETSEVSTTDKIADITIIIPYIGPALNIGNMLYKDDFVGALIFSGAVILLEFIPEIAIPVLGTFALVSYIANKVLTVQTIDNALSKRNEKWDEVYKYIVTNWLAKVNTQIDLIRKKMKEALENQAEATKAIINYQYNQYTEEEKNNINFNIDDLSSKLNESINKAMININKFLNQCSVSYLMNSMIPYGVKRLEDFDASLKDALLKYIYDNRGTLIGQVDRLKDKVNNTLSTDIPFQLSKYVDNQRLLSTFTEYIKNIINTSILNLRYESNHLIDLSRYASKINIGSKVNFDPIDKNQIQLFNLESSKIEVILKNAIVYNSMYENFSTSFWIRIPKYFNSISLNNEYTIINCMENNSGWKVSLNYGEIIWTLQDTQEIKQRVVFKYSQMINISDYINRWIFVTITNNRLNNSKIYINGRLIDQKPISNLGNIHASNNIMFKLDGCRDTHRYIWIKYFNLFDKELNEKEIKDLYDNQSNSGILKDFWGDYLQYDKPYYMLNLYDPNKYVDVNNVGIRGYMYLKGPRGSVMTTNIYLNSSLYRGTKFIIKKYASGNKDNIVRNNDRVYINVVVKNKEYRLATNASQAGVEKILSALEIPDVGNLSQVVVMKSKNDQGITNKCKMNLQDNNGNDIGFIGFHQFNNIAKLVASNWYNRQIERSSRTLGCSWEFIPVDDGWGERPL

B1: H7 VHH (VHH)
VHH: QVQLVESGGGLVQVGGSLRLSCVVSGSDISGIAMGWYRQAPGKRREMVADIFSGGSTDYAGSVKGRFTISRDNAKKTSYLQMNNVKPEDTGVYYCRLYGSGDYWGQGTQVTVSS
As a reminder, the Kd is a measure of binding affinity in units of concentration. A low value points to tighter binding. In turn, B1 came in with a Kd of 0.042 nM.

(Values after US20180237507A1 (CITY OF HOPE, published 2018).)
